# Test results: PMC11885566 (Communications Biology, 2025)
# How the values were obtained:
# [1] = target: T1, SARS-CoV-2 S ectodomain with D7-tag (SARS-CoV-2, UniProt P0DTC2); test: cell-based or functional assay
# [2] = target: SARS-CoV-2 S2 subdomain protein with D7-tag (SARS-CoV-2 (NC_045512.2, Wuhan-Hu-1), UniProt P0DTC2); test: ELISA
# [3] = target: SARS-CoV-2 NTD protein with D7-tag (SARS-CoV-2 (NC_045512.2, Wuhan-Hu-1), UniProt P0DTC2); test: ELISA
# [4] = target: SARS-CoV RBD protein (BLI) (SARS-CoV (isolate of the bought protein …, UniProt P59594)); test: BLI
# [5] = target: SARS-CoV-2 wild-type RBD protein (BLI) (SARS-CoV-2, UniProt P0DTC2); test: BLI
# [6] = target: SARS-CoV-2 S1 subdomain protein with D7-tag (SARS-CoV-2 (NC_045512.2, Wuhan-Hu-1), UniProt P0DTC2); test: ELISA
# [7] = target: T1, SARS-CoV-2 S ectodomain with D7-tag; test: ELISA
# [8] = target: SARS-CoV-2 RBD protein with D7-tag (SARS-CoV-2, UniProt P0DTC2); test: ELISA
binder,measurement,setting,value
"CYFN1006-1 (antibody, V domains shown) VH: QMQLVQSGAEVKKPGESLKISCKGSGYTFSYYWIGWVRQMPGKGLEWMGIIYPGDSDTRYSPSFQGQVTISADKSISTAYLHWSSLKASDTAMYYCARQGDLGDWILLGYWGQGTLVTVSS VL: QSALTQPRSVSGSLGQSVTISCTGISSDVGGDNYVSWYQQHPGKAPKLMIYDVSKRPSGVPDRFSGSKSGNTASLTISGLQADDEADYYCCSYALSRVVFGGGTMLTVL","neutralisation of SARS-CoV-2, IC50",[1],< 5 ng/mL
same,binding result,[2],no binding
same,binding result,[3],no binding
same,Kd,[4],32.4 nM
same,Kd,[5],< 0.001 nM
"CYFN1006-2 (antibody, V domains shown) VH: QMQLVQSGAEVKKPGESLKISCKGSGYTFSYYWIGWVRQMPGKGLEWMGIIYPGDSDTRYSPSFQGQVTISADKSISTAYLHWSSLKASDTAMYYCARQGDLGDWILLGYWGQGTLVTVSS VL: QSALTQPPSASGSPGQSVTISCTGASSDVGGYNYVSWYQQHPGKAPKLMIYEVNKRPSGVPDRFSGSKSGNTASLTISGLQADDEADYYCCSYALSRVVFGGGTMLTVL",binding result,[2],no binding
same,binding result,[3],no binding
same,binding result,[6],binds
same,binding result,[7],binds
same,binding result,[8],binds
same,binding result,[5],binds
